Earlier results in article PMC2721158.

How the values were obtained:
[1] = target: linear HPQ peptide FSHPQNT (synthetic construct); assay: titration calorimetry
[2] = target: linear peptide HDHPQNL (synthetic construct); assay: titration calorimetry
[3] = target: cyclic HPQ peptide … (synthetic construct)

Sequence of streptavidin (P22629 25-183): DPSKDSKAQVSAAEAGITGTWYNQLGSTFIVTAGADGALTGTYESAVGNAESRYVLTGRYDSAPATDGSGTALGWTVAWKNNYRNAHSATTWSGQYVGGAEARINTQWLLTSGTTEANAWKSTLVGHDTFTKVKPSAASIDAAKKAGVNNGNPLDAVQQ

streptavidin (from UniProt P22629)
Kd [1]: 126 µM | Kd [2]: 282 µM | Kd [3]: 0.23 µM
